# Experimental data: article PMC11187563, “The importance of tyrosines in multimers of cyclic RGD nonapeptides: towards αvβ6-integrin targeted radiotherapeutics” (RSC Medicinal Chemistry, 2024)
# Where two headings read alike, the source gives them in different places.
# Experiment: Ex vivo biodistribution of 177Lu-labeled peptide tetramers in H2009 xenografted SCID mice
# Details: CB17 SCID, mouse, iv, total radioactivity; for tissue uptake at 1.5 h / tissue to tissue ratio at 1.5 h: 90 min p.i.; for tissue uptake at 24 h / tissue to tissue ratio at 24 h: 154 pmol, 24 h p.i.; for tissue uptake at 72 h / tissue to tissue ratio at 72 h: 199 pmol, 3 d p.i.
# Summary of the method: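 SCID mice carried subcutaneous H2009 xenografts on the right shoulder. 177Lu-labeled conjugates were injected i.v., and ex vivo organ distribution was measured at two time points post-injection.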
# [1] = small intestine (empty), H2009 bearing SCID mice, read-out: Small intestine (empty) %IA/g
# [2] = spleen, H2009 bearing SCID mice, read-out: Spleen %IA/g
# [3] = stomach (empty), H2009 bearing SCID mice, read-out: Stomach (empty) %IA/g
# [4] = tumor/pancreas, H2009 bearing SCID mice, read-out: tumor/organ ratio, Pancreas
structure (smiles),measurement,setting,value
"CC(C)C[C@@H]1NC(=O)[C@H](CC(=O)O)NC(=O)CNC(=O)[C@H](CCCNC(=N)N)NC(=O)[C@H](Cc2ccc(O)cc2)NC(=O)[C@H](CCCCNC(=O)CCc2cn(CCCNC(=O)CCP(=O)(O)CN3CCN(CP(=O)(O)CCC(=O)NCCCn4cc(CCC(=O)NCCCC[C@H]5C(=O)N[C@@H](Cc6ccc(O)cc6)C(=O)N[C@@H](CCCNC(=N)N)C(=O)NCC(=O)N[C@@H](CC(=O)O)C(=O)N[C@@H](CC(C)C)C(=O)N[C@@H](C)C(=O)N[C@@H](Cc6ccc(O)cc6)C(=O)N6CCC[C@@H]6C(=O)N5C)nn4)CCN(CP(=O)(O)CCC(=O)NCCCn4cc(CCC(=O)NCCCC[C@H]5C(=O)N[C@@H](Cc6ccc(O)cc6)C(=O)N[C@@H](CCCNC(=N)N)C(=O)NCC(=O)N[C@@H](CC(=O)O)C(=O)N[C@@H](CC(C)C)C(=O)N[C@@H](C)C(=O)N[C@@H](Cc6ccc(O)cc6)C(=O)N6CCC[C@@H]6C(=O)N5C)nn4)CCN(CP(=O)(O)CCC(=O)NCCCn4cc(CCC(=O)NCCCC[C@H]5C(=O)N[C@@H](Cc6ccc(O)cc6)C(=O)N[C@@H](CCCNC(=N)N)C(=O)NCC(=O)N[C@@H](CC(=O)O)C(=O)N[C@@H](CC(C)C)C(=O)N[C@@H](C)C(=O)N[C@@H](Cc6ccc(O)cc6)C(=O)N6CCC[C@@H]6C(=O)N5C)nn4)CC3)nn2)N(C)C(=O)[C@H]2CCCN2C(=O)[C@H](Cc2ccc(O)cc2)NC(=O)[C@H](C)NC1=O [Compound 177Lu-Y8, metal not drawn]",tissue uptake at 1.5 h,"small intestine (empty), 124 pmol, H2009 bearing SCID mice, read-out: Small intestine (empty) %IA/g",3 %ID/g
same,tissue uptake at 24 h,[1],1.03 %ID/g
same,tissue uptake at 72 h,[1],0.16 %ID/g
same,tissue uptake at 1.5 h,"small intestine (empty), + 50 nmol non-labeled compound 10 min prior to activity, n = 2, read-out: Small intestine (empty) %IA/g, + 50 nmol cold",0.62 %ID/g
same,tissue uptake at 1.5 h,"spleen, 124 pmol, H2009 bearing SCID mice, read-out: Spleen %IA/g",8.41 %ID/g
same,tissue uptake at 24 h,[2],1.89 %ID/g
same,tissue uptake at 72 h,[2],2.01 %ID/g
same,tissue uptake at 1.5 h,"spleen, + 50 nmol non-labeled compound 10 min prior to activity, n = 2, read-out: Spleen %IA/g, + 50 nmol cold",4.99 %ID/g
same,tissue uptake at 1.5 h,"stomach (empty), 124 pmol, H2009 bearing SCID mice, read-out: Stomach (empty) %IA/g",8.26 %ID/g
same,tissue uptake at 24 h,[3],3.84 %ID/g
same,tissue uptake at 72 h,[3],2.65 %ID/g
same,tissue uptake at 1.5 h,"stomach (empty), + 50 nmol non-labeled compound 10 min prior to activity, n = 2, read-out: Stomach (empty) %IA/g, + 50 nmol cold",1.19 %ID/g
same,tissue uptake at 24 h,"tumor (H2009 xenograft), H2009 bearing SCID mice, read-out: Tumor H2009 %IA/g",2.42 %ID/g
same,tissue uptake at 1.5 h,"tumor (H2009 xenograft), + 50 nmol non-labeled compound 10 min prior to activity, n = 2, read-out: Tumor H2009 %IA/g, + 50 nmol cold",1.71 %ID/g
same,tissue to tissue ratio at 72 h,"tumor / adrenals, H2009 bearing SCID mice, read-out: tumor/organ ratio, Adrenals",4.5
same,tissue to tissue ratio at 24 h,"tumor / blood, H2009 bearing SCID mice, read-out: tumor/organ ratio, Blood",59.6
same,tissue to tissue ratio at 72 h,"tumor / bone, H2009 bearing SCID mice, read-out: tumor/organ ratio, Bone",3.4
same,tissue to tissue ratio at 24 h,"tumor / heart (myocard), H2009 bearing SCID mice, read-out: tumor/organ ratio, Heart (myocard)",15.2
same,tissue to tissue ratio at 72 h,"tumor / large intestine (empty), H2009 bearing SCID mice, read-out: tumor/organ ratio, Large intestine (empty)",3.6
same,tissue to tissue ratio at 24 h,"tumor / liver, H2009 bearing SCID mice, read-out: tumor/organ ratio, Liver",2.7
same,tissue to tissue ratio at 24 h,"tumor / lung, H2009 bearing SCID mice, read-out: tumor/organ ratio, Lung",2.1
same,tissue to tissue ratio at 72 h,"tumor / muscle, H2009 bearing SCID mice, read-out: tumor/organ ratio, Muscle",8.4
same,tissue to tissue ratio at 72 h,"tumor / small intestine (empty), H2009 bearing SCID mice, read-out: tumor/organ ratio, Small intestine (empty)",11.4
same,tissue to tissue ratio at 24 h,"tumor / spleen, H2009 bearing SCID mice, read-out: tumor/organ ratio, Spleen",1.4
same,tissue to tissue ratio at 72 h,"tumor / stomach (empty), H2009 bearing SCID mice, read-out: tumor/organ ratio, Stomach (empty)",0.8
same,tissue to tissue ratio at 1.5 h,"tumor/adrenals, 124 pmol, H2009 bearing SCID mice, read-out: tumor/organ ratio, Adrenals",8.9
same,tissue to tissue ratio at 24 h,"tumor/adrenals, H2009 bearing SCID mice, read-out: tumor/organ ratio, Adrenals",10.2
same,tissue to tissue ratio at 1.5 h,"tumor/blood, 124 pmol, H2009 bearing SCID mice, read-out: tumor/organ ratio, Blood",2.4
same,tissue to tissue ratio at 72 h,"tumor/blood, H2009 bearing SCID mice, read-out: tumor/organ ratio, Blood",67
same,tissue to tissue ratio at 1.5 h,"tumor/bone, 124 pmol, H2009 bearing SCID mice, read-out: tumor/organ ratio, Bone",1.8
same,tissue to tissue ratio at 24 h,"tumor/bone, H2009 bearing SCID mice, read-out: tumor/organ ratio, Bone",3.6
same,tissue to tissue ratio at 1.5 h,"tumor/heart (myocard), 124 pmol, H2009 bearing SCID mice, read-out: tumor/organ ratio, Heart (myocard)",5.9
same,tissue to tissue ratio at 72 h,"tumor/heart (myocard), H2009 bearing SCID mice, read-out: tumor/organ ratio, Heart (myocard)",12.2
same,tissue to tissue ratio at 1.5 h,"tumor/large intestine (empty), 124 pmol, H2009 bearing SCID mice, read-out: tumor/organ ratio, Large intestine (empty)",1.8
same,tissue to tissue ratio at 24 h,"tumor/large intestine (empty), H2009 bearing SCID mice, read-out: tumor/organ ratio, Large intestine (empty)",1.8
same,tissue to tissue ratio at 1.5 h,"tumor/liver, 124 pmol, H2009 bearing SCID mice, read-out: tumor/organ ratio, Liver",5.1
same,tissue to tissue ratio at 72 h,"tumor/liver, H2009 bearing SCID mice, read-out: tumor/organ ratio, Liver",2.4
same,tissue to tissue ratio at 1.5 h,"tumor/lung, 124 pmol, H2009 bearing SCID mice, read-out: tumor/organ ratio, Lung",1
same,tissue to tissue ratio at 72 h,"tumor/lung, H2009 bearing SCID mice, read-out: tumor/organ ratio, Lung",2.2
same,tissue to tissue ratio at 1.5 h,"tumor/muscle, 124 pmol, H2009 bearing SCID mice, read-out: tumor/organ ratio, Muscle",7.4
same,tissue to tissue ratio at 24 h,"tumor/muscle, H2009 bearing SCID mice, read-out: tumor/organ ratio, Muscle",9.5
same,tissue to tissue ratio at 1.5 h,"tumor/pancreas, 124 pmol, H2009 bearing SCID mice, read-out: tumor/organ ratio, Pancreas",14.3
same,tissue to tissue ratio at 24 h,[4],18.4
same,tissue to tissue ratio at 72 h,[4],14.9
same,tissue to tissue ratio at 1.5 h,"tumor/small intestine (empty), 124 pmol, H2009 bearing SCID mice, read-out: tumor/organ ratio, Small intestine (empty)",2.1
same,tissue to tissue ratio at 24 h,"tumor/small intestine (empty), H2009 bearing SCID mice, read-out: tumor/organ ratio, Small intestine (empty)",2.5
same,tissue to tissue ratio at 1.5 h,"tumor/spleen, 124 pmol, H2009 bearing SCID mice, read-out: tumor/organ ratio, Spleen",0.7
same,tissue to tissue ratio at 72 h,"tumor/spleen, H2009 bearing SCID mice, read-out: tumor/organ ratio, Spleen",1
same,tissue to tissue ratio at 1.5 h,"tumor/stomach (empty), 124 pmol, H2009 bearing SCID mice, read-out: tumor/organ ratio, Stomach (empty)",0.7
same,tissue to tissue ratio at 24 h,"tumor/stomach (empty), H2009 bearing SCID mice, read-out: tumor/organ ratio, Stomach (empty)",0.7
